Laboratory results from article PMC7110144, “Structural basis for centromere maintenance by Drosophila CENP‐A chaperone CAL1” (The EMBO Journal, 2020).
Numbering of substitutions follows the chain as printed. Names and notes keep the numbering of the source.

T1: His-CAL1(1-160) (Drosophila melanogaster, UniProt Q9VEN2 1-160)
T1 construct: CAL1, Drosophila melanogaster, residues 1-160; In crystal form I only CAL1 residues 17-47 were seen; the authors conclude that CAL1 was proteolytically cleaved during crystallisation; also called His-CAL1(1-160 WT); source: E. coli BL21 (DE3) Gold, purified (HisTrap native or Ni-NTA denaturing; SEC); not shown: His, N-terminal, kept
T1 sequence (looked up): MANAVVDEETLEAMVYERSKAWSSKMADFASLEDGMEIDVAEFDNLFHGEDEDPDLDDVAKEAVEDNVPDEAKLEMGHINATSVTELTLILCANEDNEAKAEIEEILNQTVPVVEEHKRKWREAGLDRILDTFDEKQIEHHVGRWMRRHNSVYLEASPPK

T2: CENP-A-GFP-LacI (in U2OS cells) (Drosophila melanogaster, UniProt Q9V6Q2 1-225)
T2 construct: CENP-A (CID), Drosophila melanogaster; source: U2OS cells with a LacO array, transfected (pN2-CMV vector), in cells; not shown: GFP, C-terminal, kept; LacI, C-terminal, kept
T2 sequence (looked up): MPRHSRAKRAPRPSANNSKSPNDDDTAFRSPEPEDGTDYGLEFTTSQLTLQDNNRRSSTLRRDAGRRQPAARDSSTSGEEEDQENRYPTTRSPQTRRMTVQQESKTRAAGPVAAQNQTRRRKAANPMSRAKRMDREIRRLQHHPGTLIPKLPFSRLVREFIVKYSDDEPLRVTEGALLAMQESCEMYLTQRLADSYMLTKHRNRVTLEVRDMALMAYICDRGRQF

B1: CENP-A(144-225) (domain or fragment, Drosophila melanogaster, UniProt Q9V6Q2 144-225, looked up)
chain: PGTLIPKLPFSRLVREFIVKYSDDEPLRVTEGALLAMQESCEMYLTQRLADSYMLTKHRNRVTLEVRDMALMAYICDRGRQF
B2: CAL1(F43R)-V5 (in U2OS cells) (natural protein, Drosophila melanogaster, UniProt Q9VEN2 1-979, looked up)
chain: MANAVVDEETLEAMVYERSKAWSSKMADFASLEDGMEIDVAERDNLFHGEDEDPDLDDVAKEAVEDNVPDEAKLEMGHINATSVTELTLILCANEDNEAKAEIEEILNQTVPVVEEHKRKWREAGLDRILDTFDEKQIEHHVGRWMRRHNSVYLEASPPKYLPPHHNSISDESDESMHSIDTARYIQQSRRRNAHMTNKNMTTIKMYRKHSHKRDELRAKYAYGDEQEHRHHMQAVLLRRRERERQLAYLASTPMQCVYSSGHHMRRKNLRKRRINSWMFDSASSSEEDTSFGGCDCHSCRRHYALSRSVYQSCPYGRGQREYHHRQMASRTMHTMRRQHTFDMEMDLRPRLPENECSCCNSDRLCSNVIHIANSSTEEWVVENRSNHLTQETQEKTRKQKHQPMDARKVSHQPVCSKGHEQKPLSSKATSVSKLVLSKEKYMQMFDSESSDEDNALAKKGLLCCSDKKKGMTFPTPNAAGKITHPTSSAKKAIRKEARPNGLAQIQEEGPTATNSPIESTYLPVAHMKSVSIDGSSGTSATFESPAKKAPKRGIRETSPLNGNELQQLISTIPIADEKASSLMEKVDNCIGRESFDDRNKDFMHMENSSTKTAVEKSTKQKRVSGKKSEIPKSIITNNEILEKNSTETLSEKQVAAKAKKQSVRKTGATGKPSTSRLKKSEKTKTTSSVTSTSKLEQVREEESDVSSEVLAKPKPQCSTTASILKQGGDGASNSEDDLQIALAMSKATYKEEQQKRKKTKREPSNKQPQSPAEKSMTVFNNQSVACNSTALANDTACYRVLPKRRGVKRAAAVSTTEEKTATNSSSSPTSSLEEMGSPTGGDPDCTVVTSTTGCEPPASERQEIPATIKITKRGILLHSPSAPEGASFTLTEQGLGKIIGERWARKYLKYHIGSRSFDSRHSVYYQPTPQLAAALSAPQDAQNIGNISGSSASDDDIFEQINRYGTVYSILENNSGDK
notes: CAL1, Drosophila melanogaster; non-codon-optimised; source: U2OS cells with a LacO array, transfected, in cells; not shown: V5, C-terminal, kept
B3: CENP-A(101-225) (domain or fragment, Drosophila melanogaster, UniProt Q9V6Q2 101-225, looked up)
chain: QQESKTRAAGPVAAQNQTRRRKAANPMSRAKRMDREIRRLQHHPGTLIPKLPFSRLVREFIVKYSDDEPLRVTEGALLAMQESCEMYLTQRLADSYMLTKHRNRVTLEVRDMALMAYICDRGRQF
notes: also called CID; histone fold domain of CENP-A
B4: CENP-C(1264-1411) (domain or fragment, Drosophila melanogaster, UniProt Q9VHP9 1264-1411, looked up)
chain: GPVVFSTPLRDEQEEASTKLMQWLRGVGDAPPSASMSDENASVSSANELIFCQVDGIDYAFYNTKEKAMLGYMRFKPYQKRSMKQAKVHPLKLLVQFGEFNVETLAVGEEKEVHSVLRVGDMIEIDRGTRYSIQNAIDKVSVLMCIRS
notes: also called CENP-C cupin domain; source: E. coli Rosetta (DE3), purified; tag removed with 3C, SEC; not shown: His, N-terminal, cleaved
B5: His-CENP-C(1264-1411) (domain or fragment)
chain: B4 chain
notes: vector pEC-K-3C-His; also called CENP-C cupin domain; source: E. coli Rosetta (DE3), purified (HisTrap, SEC); not shown: His, N-terminal, kept
B6: His-CAL1(1-160-LL-841-979) (domain or fragment, Drosophila melanogaster)
chain: MANAVVDEETLEAMVYERSKAWSSKMADFASLEDGMEIDVAEFDNLFHGEDEDPDLDDVAKEAVEDNVPDEAKLEMGHINATSVTELTLILCANEDNEAKAEIEEILNQTVPVVEEHKRKWREAGLDRILDTFDEKQIEHHVGRWMRRHNSVYLEASPPKGSSGGSSGGGDPDCTVVTSTTGCEPPASERQEIPATIKITKRGILLHSPSAPEGASFTLTEQGLGKIIGERWARKYLKYHIGSRSFDSRHSVYYQPTPQLAAALSAPQDAQNIGNISGSSASDDDIFEQINRYGTVYSILENNSGDK
notes: CAL1, Drosophila melanogaster, residues 1-160; flexible linker (LL) in place of residues 161-840; not shown: His, N-terminal, kept
B7: CAL1(841-979) (domain or fragment, Drosophila melanogaster, UniProt Q9VEN2 841-979, looked up)
chain: GGDPDCTVVTSTTGCEPPASERQEIPATIKITKRGILLHSPSAPEGASFTLTEQGLGKIIGERWARKYLKYHIGSRSFDSRHSVYYQPTPQLAAALSAPQDAQNIGNISGSSASDDDIFEQINRYGTVYSILENNSGDK
notes: only residues 890-913 are seen in the structure; source: E. coli BL21 (DE3) Gold, purified; not shown: His6, N-terminal, cleaved; SUMO, N-terminal, cleaved
B8: His-CAL1(1-160) F43R (domain or fragment)
chain: T1 sequence (looked up) with F43R
notes: CAL1, Drosophila melanogaster, residues 1-160, codon optimised; source: E. coli, recombinant, purified; not shown: His, N-terminal, kept

Assays:
His-CAL1(1-160) [1] = biological target: T1, His-CAL1(1-160); assay: crystal structure; crystal form II; complex in 20 mM Tris-HCl pH 8.0, 1 M NaCl, 2 mM DTT; lithium sulphate, 0.1 M Tris pH 8.5, PEG 4000; anisotropic diffraction; settings: both partners purified
H4 [2] = biological target: T3, H4 (Drosophila melanogaster, UniProt P84040 1-103); assay: as above; settings: both partners purified
T3 construct: histone H4, Drosophila melanogaster (dm H4); plasmid pET22b H4, gift of Karolin Luger; also called histone H4; dm H4

[3] = biological target: T2, CENP-A-GFP-LacI (in U2OS cells); assay: LacO/LacI tethering assay (recruitment seen by immunofluorescence); human U2OS cells with a LacO array; GFP-LacI fusion tethered, recruitment of co-transfected CAL1-V5 measured at the LacO spot; settings: partners not purified
His-CAL1(1-160) [4] = biological target: T1, His-CAL1(1-160); assay: cross-linking; gel-filtered complex dialysed into PBS; EDC/sulpho-NHS 1.5 h or BS3 2 h at RT; gel bands digested with trypsin, LC-MS/MS; settings: both partners purified
H4 [5] = biological target: T3, H4; assay: crystal structure; crystal form I; complex at 27 mg/ml in 20 mM Tris-HCl pH 8.0, 1 M NaCl, 5 mM DTT; 0.01 M cobalt(II) chloride, 0.1 M MES pH 6.5, 1.8 M ammonium sulphate, 18°C; crystals after about a year; settings: both partners purified
[6] = biological target: the molecule itself; assay: SEC-MALS; Superdex 75 increase 10/300 GL, 50 mM HEPES pH 8.0, 100 mM NaCl, 1 mM TCEP, 4°C
[7] = biological target: T4, His-CAL1(1-160-LL-841-979)/CENP-A(101-225)/H4 (Drosophila melanogaster, UniProt Q9VEN2 1-160; Q9VEN2 841-979; Q9V6Q2 101-225; P84040 1-103); assay: SEC; refolded His-CAL1(1-160-LL-841-979)/CENP-A(101-225)/H4 alone or mixed with 1.2 molar excess of His-CENP-C(1264-1411); Superdex 200 increase 10/300, 20 mM Tris-HCl pH 8.0, 100 mM NaCl, 2 mM DTT; settings: both partners purified
T4 construct: CAL1, Drosophila melanogaster, residues 1-160; flexible linker (LL) in place of residues 161-840; histone H4, Drosophila melanogaster (dm H4); plasmid pET22b H4; not shown: His, N-terminal, kept; copies: + +

His-CENP-C(1264-1411) = biological target: B5; assay: as above; settings: both partners purified
CENP-A(101-225)-H4 [8] = biological target: T5, CENP-A(101-225)-H4 (Drosophila melanogaster, UniProt Q9V6Q2 101-225; P84040 1-103); assay: as above; settings: both partners purified
T5 construct: histone H4, Drosophila melanogaster (dm H4); plasmid pET22b H4, gift of Karolin Luger; also called CENP-A/H4; CENP-A/H4 complex

CENP-C(1264-1411) = biological target: B4; assay: AUC; sedimentation velocity (49 k rpm) and sedimentation equilibrium (26 k rpm), 4°C; untagged proteins and SEC purified untagged complex; a range of concentrations, up to 10 mg/ml; settings: both partners purified
CENP-A(101-225)-H4 [9] = biological target: T5, CENP-A(101-225)-H4; assay: pull-down; His-CAL1(1-160) WT or mutant mixed with 1.3 times molar excess of CENP-A(101-225)-H4 and captured on Ni-NTA resin; 20 mM Tris-HCl pH 8.0, 2 M NaCl, 10% glycerol, 0.5% NP40, 35 mM imidazole, 2 mM βME, 30 min at 4°C; Coomassie-stained SDS-PAGE; settings: both partners purified

## B1
His-CAL1(1-160) [1]
  binding result: binds
H4 [2]
  binding result: binds

## B2
[3]
  fold change of recruitment against CAL1 WT: 3 fold less than CAL1 WT

## B3
His-CAL1(1-160) [4]
  binding result: binds
H4 [5]
  binding result: binds

## B4
[6]
  stoichiometry N: 2

## B5
[7]
  binding result: binds

## B6
His-CENP-C(1264-1411)
  binding result: binds
CENP-A(101-225)-H4 [8]
  binding result: binds

## B7
CENP-C(1264-1411)
  stoichiometry N: 1 CAL1 per CENP-C dimer (2:1 CENP-C:CAL1)

## B8
CENP-A(101-225)-H4 [9]
  binding result: binds
